Values belong to the binder of their own block, whether it stands above or below them. Ends that are not written are not given here.
Columns and labels:
[1] = biological target: T1, protein-farnesyltransferase derived from bovine brains (bovine, UniProt P29702 2-375; P49355 1-437); experiment: cell-based or functional assay
[2] = biological target: T1, protein-farnesyltransferase derived …; experiment: cell-based or functional assay; remark: listed apart in the source

IC50, protein-farnesyltransferase-inhibiting activity (transfer of [3H]-farnesyl diphosphate to v-Ki-Ras p21) [1]: 19 µM
B1: compound (5) (peptide)
peptide: VYAVTGRGDSPAAFGGRIDRIGAA-OH
modifications: not fully specified (bridges); also: cyclic amide Gly alpha-amino to Asp side chain, places unclear

IC50, protein-farnesyltransferase inhibiting activity in SPA enzyme assay kit (intake of [3H]-farnesyl diphosphate by biotin-lamin-B peptide) [2]: 0.42 µM
IC50, protein-farnesyltransferase-inhibiting activity (transfer of [3H]-farnesyl diphosphate to v-Ki-Ras p21) [1]: 0.56 µM
B2: compound (3) (peptide)
peptide: VYAVTGRGDSPASSGCVLS-OH
modifications: not fully specified (bridges); also: cyclic amide Gly alpha-amino to Asp side chain, places unclear

IC50, protein-farnesyltransferase-inhibiting activity (transfer of [3H]-farnesyl diphosphate to v-Ki-Ras p21) [1]: 9 µM
B3: compound (4) (peptide)
peptide: VYAVTGRGDSPAFGGRIDRI-OH
modifications: not fully specified (bridges); also: cyclic amide Gly alpha-amino to Asp side chain, places unclear

— patent EP0672680A1 (KYOWA HAKKO KOGYO CO., LTD., dated 1995)
